The text below walks through data of patent US20180022781A1 (INSERM INSTITUT NATIONAL DE LA SANTE ET DE LA RECHERCHE …, published 2018).

Data set [1] addresses S. pombe AC40 (AC40sp) (Schizosaccharomyces pombe) (UniProt O94616). The data set is described as follows: cell-based or functional assay.
The target in data set [2] is AC40 subunit of RNA polymerase III, P07703.
Data set [3] addresses S. pombe AC40 (AC40sp), O94616.

Sequence of AC40 subunit of RNA polymerase III, P07703 (P07703 whole entry, looked up, tested part not stated): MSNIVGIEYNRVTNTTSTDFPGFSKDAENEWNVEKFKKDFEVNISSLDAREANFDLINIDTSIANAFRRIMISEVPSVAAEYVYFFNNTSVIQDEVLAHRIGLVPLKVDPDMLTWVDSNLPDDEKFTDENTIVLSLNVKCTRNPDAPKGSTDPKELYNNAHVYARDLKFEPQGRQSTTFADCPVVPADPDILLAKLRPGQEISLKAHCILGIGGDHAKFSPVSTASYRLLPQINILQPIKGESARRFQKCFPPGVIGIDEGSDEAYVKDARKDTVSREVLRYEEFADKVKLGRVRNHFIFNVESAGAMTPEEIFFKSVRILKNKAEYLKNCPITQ

Molecule “Ty1 integrase (IN) expressed from a functional Ty1 element (from UniProt P0C2I7 583-1217) (enzyme)” returned a fraction of 5FOA^R cells arising from Ty1 integration in data set [1] of 30 fold lower.

B1: Ty1 integrase with S621 modified in A, expressed from a mutant Ty1 element (protein)
chain: NVHTSESTRKYPYPFIHRMLAHANAQTIRYSLKNNTITYFNESDVDWSSAIDYQCPDCLIGKSTKHRHIKGSRLKYQNSYEPFQYLHTDIFGPVHNLPNSAPSYFISFTDETTKFRWVYPLHDRREDSILDVFTTILAFIKNQFQASVLVIQMDRGSEYTNRTLHKFLEKNGITPCYTTTADSRAHGVAERLNRTLLDDCRTQLQCSGLPNHLWFSAIEFSTIVRNSLASPKSKKSARQHAGLAGLDISTLLPFGQPVIVNDHNPNSKIHPRGIPGYALHPSRNSYGYIIYLPSLKKTVDTTNYVILQGKESRLDQFNYDALTFDEDLNRLTASYHSFIASNEIQESNDLNIESDHDFQSDIELHPEQPRNVLSKAVSPTDSTPPSTHTEDSKRVSKTNIRAPREVDPNISESNILPSKKRSSTPQISNIESTGSGGMHKLNVPLLAPMSQSNTHESSHASKSKDFRHSDSYSENETNHTNVPISSTGGTNNKTVPQISDQETEKRIIHRSPSIDASPPENNSSHNIVPIKTPTTVSEQNTEESIIADLPLPDLPPESPTEFPDPFKELPPINSRQTNSSLGGIGDSNAYTTINSKKRSLEDNETEIKVSRDTWNTKNMRALEPPRSKKRIHLIA
On to B1, for which, in data set [2], the “PCR detection of Ty1 insertion events upstream of tG(GCC)C” value (“PCR detection” below) is “Ty1 integration upstream of a Pol III genes is severely affected in Ty1 mutants carrying mutations that abolish IN/AC40 interaction” and the “relative frequency of Ty1his3AI retrotransposition” value (“relative frequency” for short) is “Ty1 overall mobility decreases no more than two-fold in Ty1 mutants carrying mutations that abolish IN/AC40 interaction”.

B2: Ty1 integrase with R619 [read as R620] modified in A, expressed from a mutant Ty1his3AI element (protein)
chain: NVHTSESTRKYPYPFIHRMLAHANAQTIRYSLKNNTITYFNESDVDWSSAIDYQCPDCLIGKSTKHRHIKGSRLKYQNSYEPFQYLHTDIFGPVHNLPNSAPSYFISFTDETTKFRWVYPLHDRREDSILDVFTTILAFIKNQFQASVLVIQMDRGSEYTNRTLHKFLEKNGITPCYTTTADSRAHGVAERLNRTLLDDCRTQLQCSGLPNHLWFSAIEFSTIVRNSLASPKSKKSARQHAGLAGLDISTLLPFGQPVIVNDHNPNSKIHPRGIPGYALHPSRNSYGYIIYLPSLKKTVDTTNYVILQGKESRLDQFNYDALTFDEDLNRLTASYHSFIASNEIQESNDLNIESDHDFQSDIELHPEQPRNVLSKAVSPTDSTPPSTHTEDSKRVSKTNIRAPREVDPNISESNILPSKKRSSTPQISNIESTGSGGMHKLNVPLLAPMSQSNTHESSHASKSKDFRHSDSYSENETNHTNVPISSTGGTNNKTVPQISDQETEKRIIHRSPSIDASPPENNSSHNIVPIKTPTTVSEQNTEESIIADLPLPDLPPESPTEFPDPFKELPPINSRQTNSSLGGIGDSNAYTTINSKKRSLEDNETEIKVSRDTWNTKNMASLEPPRSKKRIHLIA
Consider B2, for which the “relative frequency” value in data set [2] is “Ty1 overall mobility decreases no more than two-fold in Ty1 mutants carrying mutations that abolish IN/AC40 interaction”.

B3: Ty1 integrase with L622 modified in A, expressed from a mutant Ty1 element (protein)
chain: NVHTSESTRKYPYPFIHRMLAHANAQTIRYSLKNNTITYFNESDVDWSSAIDYQCPDCLIGKSTKHRHIKGSRLKYQNSYEPFQYLHTDIFGPVHNLPNSAPSYFISFTDETTKFRWVYPLHDRREDSILDVFTTILAFIKNQFQASVLVIQMDRGSEYTNRTLHKFLEKNGITPCYTTTADSRAHGVAERLNRTLLDDCRTQLQCSGLPNHLWFSAIEFSTIVRNSLASPKSKKSARQHAGLAGLDISTLLPFGQPVIVNDHNPNSKIHPRGIPGYALHPSRNSYGYIIYLPSLKKTVDTTNYVILQGKESRLDQFNYDALTFDEDLNRLTASYHSFIASNEIQESNDLNIESDHDFQSDIELHPEQPRNVLSKAVSPTDSTPPSTHTEDSKRVSKTNIRAPREVDPNISESNILPSKKRSSTPQISNIESTGSGGMHKLNVPLLAPMSQSNTHESSHASKSKDFRHSDSYSENETNHTNVPISSTGGTNNKTVPQISDQETEKRIIHRSPSIDASPPENNSSHNIVPIKTPTTVSEQNTEESIIADLPLPDLPPESPTEFPDPFKELPPINSRQTNSSLGGIGDSNAYTTINSKKRSLEDNETEIKVSRDTWNTKNMRSAEPPRSKKRIHLIA
As to B3, in data set [2], the “PCR detection” value is “Ty1 integration upstream of a Pol III genes is severely affected in Ty1 mutants carrying mutations that abolish IN/AC40 interaction” and the “relative frequency” value was “Ty1 overall mobility decreases no more than two-fold in Ty1 mutants carrying mutations that abolish IN/AC40 interaction”.

B4: Ty1 integrase (IN) expressed from a functional Ty1 element (protein)
chain: NVHTSESTRKYPYPFIHRMLAHANAQTIRYSLKNNTITYFNESDVDWSSAIDYQCPDCLIGKSTKHRHIKGSRLKYQNSYEPFQYLHTDIFGPVHNLPNSAPSYFISFTDETTKFRWVYPLHDRREDSILDVFTTILAFIKNQFQASVLVIQMDRGSEYTNRTLHKFLEKNGITPCYTTTADSRAHGVAERLNRTLLDDCRTQLQCSGLPNHLWFSAIEFSTIVRNSLASPKSKKSARQHAGLAGLDISTLLPFGQPVIVNDHNPNSKIHPRGIPGYALHPSRNSYGYIIYLPSLKKTVDTTNYVILQGKESRLDQFNYDALTFDEDLNRLTASYHSFIASNEIQESNDLNIESDHDFQSDIELHPEQPRNVLSKAVSPTDSTPPSTHTEDSKRVSKTNIRAPREVDPNISESNILPSKKRSSTPQISNIESTGSGGMHKLNVPLLAPMSQSNTHESSHASKSKDFRHSDSYSENETNHTNVPISSTGGTNNKTVPQISDQETEKRIIHRSPSIDASPPENNSSHNIVPIKTPTTVSEQNTEESIIADLPLPDLPPESPTEFPDPFKELPPINSRQTNSSLGGIGDSNAYTTINSKKRSLEDNETEIKVSRDTWNTKNMRSLEPPRSKKRIHLIA
For the molecule B4, in data set [3], the “PCR pattern of Ty1 insertions upstream of tG(GCC)C” value was “In cultures expressing AC40sp, the pattern was dramatically altered, showing both a significant decrease in Ty1 integration and an apparent relaxed periodicity between hotspots”; the “frequency of IN-dependent Ty1HIS3 integration in a rad52Δ mutant” value is recorded as “the frequency of IN-dependent integration is 2-fold lower in AC40sp cells compared to AC40 cells”; the “genome-wide Ty1 integration profile” value is reported as “the loss-of-interaction mutant displayed a fundamentally different profile with only a slight bias to integrate near tRNA genes”.

B5: Ty1 integrase with M619 modified in A, expressed from a mutant Ty1 element (protein)
chain: NVHTSESTRKYPYPFIHRMLAHANAQTIRYSLKNNTITYFNESDVDWSSAIDYQCPDCLIGKSTKHRHIKGSRLKYQNSYEPFQYLHTDIFGPVHNLPNSAPSYFISFTDETTKFRWVYPLHDRREDSILDVFTTILAFIKNQFQASVLVIQMDRGSEYTNRTLHKFLEKNGITPCYTTTADSRAHGVAERLNRTLLDDCRTQLQCSGLPNHLWFSAIEFSTIVRNSLASPKSKKSARQHAGLAGLDISTLLPFGQPVIVNDHNPNSKIHPRGIPGYALHPSRNSYGYIIYLPSLKKTVDTTNYVILQGKESRLDQFNYDALTFDEDLNRLTASYHSFIASNEIQESNDLNIESDHDFQSDIELHPEQPRNVLSKAVSPTDSTPPSTHTEDSKRVSKTNIRAPREVDPNISESNILPSKKRSSTPQISNIESTGSGGMHKLNVPLLAPMSQSNTHESSHASKSKDFRHSDSYSENETNHTNVPISSTGGTNNKTVPQISDQETEKRIIHRSPSIDASPPENNSSHNIVPIKTPTTVSEQNTEESIIADLPLPDLPPESPTEFPDPFKELPPINSRQTNSSLGGIGDSNAYTTINSKKRSLEDNETEIKVSRDTWNTKNARSLEPPRSKKRIHLIA
Turning to B5, in data set [2], the “PCR detection” value is on record as “The loss of this pattern was also obtained in mutants of Ty1 in which either of the K617 or M619 residues where modified in A (alanine)” and the “relative frequency” value was “Ty1 overall mobility decreases no more than two-fold in Ty1 mutants carrying mutations that abolish IN/AC40 interaction”.

B6: Ty1 integrase with K617 modified in A, expressed from a mutant Ty1 element (protein)
chain: NVHTSESTRKYPYPFIHRMLAHANAQTIRYSLKNNTITYFNESDVDWSSAIDYQCPDCLIGKSTKHRHIKGSRLKYQNSYEPFQYLHTDIFGPVHNLPNSAPSYFISFTDETTKFRWVYPLHDRREDSILDVFTTILAFIKNQFQASVLVIQMDRGSEYTNRTLHKFLEKNGITPCYTTTADSRAHGVAERLNRTLLDDCRTQLQCSGLPNHLWFSAIEFSTIVRNSLASPKSKKSARQHAGLAGLDISTLLPFGQPVIVNDHNPNSKIHPRGIPGYALHPSRNSYGYIIYLPSLKKTVDTTNYVILQGKESRLDQFNYDALTFDEDLNRLTASYHSFIASNEIQESNDLNIESDHDFQSDIELHPEQPRNVLSKAVSPTDSTPPSTHTEDSKRVSKTNIRAPREVDPNISESNILPSKKRSSTPQISNIESTGSGGMHKLNVPLLAPMSQSNTHESSHASKSKDFRHSDSYSENETNHTNVPISSTGGTNNKTVPQISDQETEKRIIHRSPSIDASPPENNSSHNIVPIKTPTTVSEQNTEESIIADLPLPDLPPESPTEFPDPFKELPPINSRQTNSSLGGIGDSNAYTTINSKKRSLEDNETEIKVSRDTWNTANMRSLEPPRSKKRIHLIA
As for B6, in data set [2], the “PCR detection” value is listed as “The loss of this pattern was also obtained in mutants of Ty1 in which either of the K617 or M619 residues where modified in A (alanine)” and the “relative frequency” value is recorded as “Ty1 overall mobility decreases no more than two-fold in Ty1 mutants carrying mutations that abolish IN/AC40 interaction”.
